One molecule from PMC8994517 (Nature, 2021) can be followed below.

This assay deals with Human Hsp90α (human, UniProt P07900 1-732). Description: cryo-EM structure.

B1: Human p23 (natural protein, UniProt Q15185 1-160, looked up)
chain: MQPASAKWYDRRDYVFIEFCVEDSKDVNVNFEKSKLTFSCLGGSDNFKHLNEIDLFHCIDPNDSKHKRTDRSILCCLRKGESGQSWPRLTKERAKLNWLSVDFNNWKDWEDDSDEDMSNFDRFSEMMNNMGGDEDVDLPEVDGADDDSQDSDDEKMPDLE
As for B1, the “stoichiometry N” value was 1 p23 per Hsp90 dimer.

As a reminder, the stoichiometry N is the number of molecules, sites or subunits per partner or assembly.
